Results taken from paper PMC11898703.

Biological target: FliW-T25 (Clostridioides difficile) (UniProt Q18CX4)
Experiment: two-hybrid; bacterial two-hybrid (BACTH) in E. coli BTH101 read by β-galactosidase assay on cell lysates (10^10 CFU, bead beating in Z buffer, ONPG, ΔOD420 over 1 h)

TcdR-T18 (natural protein)
fold increase in β-galactosidase activity over the TcdR-T18 + T25 control: 2 fold
